This is an account of results in publication PMC4507941 (PLoS ONE, 2015).

Data set [1] has as its system Insulin-degrading enzyme (IDE). The settings on record: cited from earlier work. As to the method: Table 1 Comparison of enzymatic characters of pitrilysin and IDE towards different substrates. | column: kcat (min^-1); KM (μM); kcat/KM (min^-1μM^-1)
Data set [2] addresses T1, pitrilysin (Homo sapiens, UniProt Q5JRX3).
T1 construct: made in house; host or cells: Sf9 cells
T1 sequence (Q5JRX3 29-1037): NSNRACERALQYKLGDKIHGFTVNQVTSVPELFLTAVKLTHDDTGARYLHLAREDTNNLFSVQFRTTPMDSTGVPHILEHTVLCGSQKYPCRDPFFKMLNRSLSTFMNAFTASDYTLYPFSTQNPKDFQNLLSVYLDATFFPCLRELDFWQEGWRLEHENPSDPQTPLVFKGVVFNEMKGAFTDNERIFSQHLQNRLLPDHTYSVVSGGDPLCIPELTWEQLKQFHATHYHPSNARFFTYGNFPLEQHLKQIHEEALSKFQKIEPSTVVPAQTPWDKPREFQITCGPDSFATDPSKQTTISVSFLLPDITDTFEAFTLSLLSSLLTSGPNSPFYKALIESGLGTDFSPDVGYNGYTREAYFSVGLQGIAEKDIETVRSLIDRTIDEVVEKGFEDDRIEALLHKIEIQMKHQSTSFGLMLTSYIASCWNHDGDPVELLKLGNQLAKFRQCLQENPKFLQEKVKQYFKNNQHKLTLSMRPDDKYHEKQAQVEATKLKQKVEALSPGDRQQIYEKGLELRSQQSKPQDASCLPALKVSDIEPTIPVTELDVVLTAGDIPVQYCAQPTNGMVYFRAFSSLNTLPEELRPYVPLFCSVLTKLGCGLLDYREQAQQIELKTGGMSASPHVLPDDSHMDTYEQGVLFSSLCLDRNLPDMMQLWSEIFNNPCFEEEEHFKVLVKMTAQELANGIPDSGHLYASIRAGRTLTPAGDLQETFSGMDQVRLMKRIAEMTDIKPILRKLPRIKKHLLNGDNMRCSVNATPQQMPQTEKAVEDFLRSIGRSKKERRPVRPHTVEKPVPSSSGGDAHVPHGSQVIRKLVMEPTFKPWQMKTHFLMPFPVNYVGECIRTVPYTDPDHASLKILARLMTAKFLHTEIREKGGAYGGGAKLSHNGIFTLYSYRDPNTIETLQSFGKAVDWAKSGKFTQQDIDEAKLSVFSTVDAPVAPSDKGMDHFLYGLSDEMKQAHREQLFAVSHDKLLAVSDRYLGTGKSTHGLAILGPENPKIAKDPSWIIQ
The settings on record: ref [23], cited from earlier work. As to the method: (§1) Table 1 Comparison of enzymatic characters of pitrilysin and IDE towards different substrates. | column: kcat (min^-1); KM (μM); kcat/KM (min^-1μM^-1) || Having established IAPP as a substrate of pitrilysin, the kinetic properties of the reaction were determined. The rate of hIAPP hydrolysis was determined by measuring the disappearance of the substrate by HPLC, while k cat was determined based on the linear initial rate of hIAPP hydrolysis at a saturating hIAPP concentration (20 μM) using a molecular mass of 117 kDa for pitrilysin. The KM for hIAPP was determined by using it as an alternate substrate inhibitor of the hydrolysis of the fluorogenic peptide Abz-GGYRRGQ-EDDnp. The kcat and KM values of pitrilysin with hIAPP are 13.5 ± 0.1 m ...

Data set [3] concerns the target T1, pitrilysin. As to the kind of experiment: Cleavage of peptide substrates by recombinant pitrilysin (HPLC substrate disappearance; KM as alternate substrate inhibitor of a fluorogenic peptide). It counts as biochemical. Particulars: for Degradation of monomeric IAPP by pitrilysin: monomeric peptide 20 μM, HPLC. As to the method: Pitrilysin was produced in Sf9 cells (ATCC, Manassas, VA, USA) and purified as described.. The purity of recombinant pitrilysin is greater than 97% as judged from Coomassie blue stained SDS-PAGE gels using NIH ImageJ software (S1 Fig).
Monomeric hIAPP (20 μM) was incubated with 40 nM pitrilysin in 50 mM Tris/HCl buffer (pH 7.4) containing 200 mM NaCl at 37°C for various times and analyzed by reverse phase HPLC [22, 23]. hIAPP and its cleavage products were collected manually and identified by mass spectrometry.
as §1, with “Having” for “Table 1 Comparison of enzymatic characters of pitrilysin and IDE towards different substrates. | column: kcat (min^-1); KM (μM); kcat/KM (min^-1μM^-1) || Having”, “min^-1 and 0.38 ± 0.01 μM, respectively (Table 1).” for “m ...”

Data set [4] has as its system Insulin-degrading enzyme (IDE). As to the kind of experiment: Cleavage of peptide substrates by insulin-degrading enzyme (IDE), determined as for pitrilysin. The format is biochemical. The settings on record: mean ± SEM. As to the method:
as §1, with “Having” for “Table 1 Comparison of enzymatic characters of pitrilysin and IDE towards different substrates. | column: kcat (min^-1); KM (μM); kcat/KM (min^-1μM^-1) || Having”, “min^-1 and 0.38 ± 0.01 μM, respectively (Table 1).” for “m ...”
We therefore compared the enzymatic properties of these two enzymes in terms of hIAPP degradation. The kcat and KM values for IDE with hIAPP were determined as above yielding values of 294 ± 0.4 min^-1 and 3.11 ± 0.20 μM, respectively. […] (Table 1). Thus relative to IDE, pitrilysin is a more specific IAPP degrading enzyme.

For data set [5], the target named is T1, pitrilysin. Put plainly: In vitro cleavage of oligomeric hIAPP by pitrilysin (SDS-PAGE, Western blot). The settings on record: hIAPP oligomers (12, 28, 36, 40 kDa and large oligomers), 40 or 400 nM pitrilysin, 37°C, 1 hr. It counts as biochemical. As to the method:
hIAPP was incubated at 37°C for 1 hr. with gentle shaking to induce hIAPP oligomerization. To produce low molecular weight oligomers, hIAPP oligomerization was initiated in saline solution at 37°C using 50 μM recombinant hIAPP and then incubated with myocytes for 2 hours at room temperature. Similarly cardiac myocytes from hIAPP expressing rats (HIP rats) contain amylin oligomers and thus both were used. Pitrilysin was added to oligomers and incubated for 1 hour at 37°C. The reaction was then subjected to SDS-PAGE and Western blotting with A11 antisera for large oligomer or with mouse anti-hIAPP for detection of monomers and small oligomers. Adult cardiac myocytes were isolated from wild-type Sprague-Dawley rats and from HIP rats as described.
Oligomers of hIAPP were generated from hIAPP incubated with rat cardiac myocytes and then incubated with pitrilysin (400 nM) at 37°C for 1 hr. Reactions were analyzed by Western blot analysis using mouse monoclonal anti-human amylin antibody E-5. b. […] Reactions were analyzed by Western blots using rabbit anti-IAPP that recognizes monomeric IAPP or rabbit anti-oligomer antibody A11. rIAPP (20 μM) was treated at the same condition as a negative control.
(A western blot detects proteins with antibodies after separation by electrophoresis.)

Data set [6] deals with recombinant pitrilysin. As to the kind of experiment: 40 nM pitrilysin in 50 mM Tris/HCl buffer (pH 7.4) containing 200 mM NaCl. The settings on record: human, 37°C, up to 60'.
The test system of data set [7] is pitrilysin. Put plainly: pitrilysin (400 nM) added to hIAPP oligomers generated with rat cardiac myocytes or from HIP rat cardiac myocytes. The settings on record: human, 37°C, up to 1hr.
Data set [8] relates to pitrilysin. Put plainly: 40 nM pitrilysin added to hIAPP preincubated at 37°C to induce oligomer formation. Particulars: human, up to 1hr.
Setting [9] is: 40 nM pitrilysin, 50 mM Tris/HCl pH 7.4, 200 mM NaCl, 37°C.
[10] abbreviates: 20 μM hIAPP, 40 nM pitrilysin, 37°C, HPLC peaks identified by mass spectrometry.

“Also recorded” adds a separate entry of the source. Like-named read-outs stand apart in the source and are kept apart here. Where no end group is shown, it is not given here.

As to Insulin, in data set [1] (ref [44]), the Km (in general, the concentration of substrate that gives half-maximal velocity) was 0.13 ± 0.02 µM; the kcat (as a rule, the number of substrate molecules converted per active site and unit of time at saturation) was 0.00933 ± 0.00017 s⁻¹; the kcat/KM is on record as 4.3 min^-1μM^-1. In data set [2], the Km was 54.5 ± 5.5 µM, the kcat was 0.0033 ± 0 s⁻¹ and the kcat/KM is 0.0037 min^-1μM^-1.
Turning to “rIAPP: rodent (rat) islet amyloid polypeptide, does not form oligomers”, the “Degradation of monomeric IAPP by pitrilysin” value in data set [3] (setting [9]) is “degrades monomeric rat IAPP”.
Regarding amyloid β peptide 1–40 [Aβ 40], in data set [1] (ref [43]), the Km is 0.87 ± 0.1 µM, the kcat is 3.68 ± 0.183 s⁻¹ and the kcat/KM is listed as 250 min^-1μM^-1. In addition, in data set [2] (listed as Aβ1–40), the kcat/KM was 1.94 min^-1μM^-1. Moreover, in data set [2], the Km is 1.7 ± 0.1 µM and the kcat is 0.055 ± 0.0017 s⁻¹.
With “islet amyloid polypeptide (KCNTATCATQRLANFLVHSSNNFGAILSSTNVGSNTY; not fully specified (C-terminus); cysteine pairing not given here) [hIAPP, Human islet amyloid polypeptide (IAPP, amylin), from Anaspec; substrate of pitrilysin and IDE]”, the kcat in data set [4] (determined as for pitrilysin (HPLC, saturating hIAPP)) came out at 4.9 ± 0.0067 s⁻¹; in data set [3] (pitrilysin, linear initial rate of hIAPP hydrolysis at saturating 20 μM, substrate disappearance by HPLC, 50 mM Tris/HCl pH 7.4, 200 mM NaCl, 37°C, molecular mass 117 kDa, mean ± SEM), 0.225 ± 0.0017 s⁻¹. Besides, the Km is 3.11 ± 0.2 µM in data set [4] (determined as for pitrilysin (alternate substrate inhibitor)) and 0.38 ± 0.01 µM in data set [3] (pitrilysin, hIAPP as alternate substrate inhibitor of hydrolysis of fluorogenic peptide Abz-GGYRRGQ-EDDnp, mean ± SEM). Besides, the “Degradation of oligomeric hIAPP by pitrilysin” value in data set [5] is “not able to degrade; also recorded: does not degrade”. Besides, the “Initial cleavage sites on hIAPP by pitrilysin” value in data set [3] (setting [10]) was “Phe^15-Leu^16, Gly^24-Ala^25 and Ala^25-Ile^26”. Also, in data set [3] (setting [10]), the “Secondary (subsequent) cleavage sites on hIAPP by pitrilysin” value was “Arg^11-Leu^12, Leu^12-Ala^13, Ala^13-Asn^14 and Asn^14-Phe^15”. Moreover, the “Degradation of monomeric IAPP by pitrilysin” value in data set [3] (setting [9]) is recorded as “hIAPP degradation is indeed catalyzed by pitrilysin”.
On to “KCNTATCATQRLANFLVHSSNNFGAILSSTNVGSNTY-NH2”, for which the cleaved bond entry in data set [6] is “Phe15-Leu16, first_seen; also recorded: Gly24-Ala25, major; also recorded: Ala25-Ile26, major; also recorded: Arg11-Leu12, minor; also recorded: Leu12-Ala13, minor; also recorded: Ala13-Asn14, minor; also recorded: Asn14-Phe15, minor”. The not cleaved entry in data set [7] is reported as “inability of pitrilysin to reduce the amount of hIAPP oligomers of 12 kDa, 28 kDa, 36 kDa, or 40 kDa (1 hr)”; in data set [8] it was “not able to degrade large hIAPP oligomers (1hr)”.
